± gives the uncertainty stated by the source.

This note sets out measurements from the Human Domainome abundance scans (Beltran et al. 2025).

B1: Formin-binding protein 4, residues 200 to 261; numbered along this chain, Q8N3X1 (parent)
chain: SGWQYDTQCSLAGVGIEMGDWQEVWDENTGCYYYWNTQTNEVTWELPQYLATQVQGLQHYQP

Variants of B1 are the subject of the data set. Kind of data set: abundance fitness (aPCA) (normalised: wild type 0, dead -1); higher = more abundant; growth selection in yeast, the domain comes from the species named. The following applies: Homo sapiens.
With SGWQYDTQCSLAGVGIEMNDWQEVWDENTGCYYYWNTQTNEVTWELPQYLATQVQGLQHYQP [G19N], the abundance fitness is -0.676 ± 0.42. For SGWQYDTQCSLAGVGIEMMDWQEVWDENTGCYYYWNTQTNEVTWELPQYLATQVQGLQHYQP [G19M] the value was -0.525 ± 0.12; for SGWQYDTQCSLAGVGIEMCDWQEVWDENTGCYYYWNTQTNEVTWELPQYLATQVQGLQHYQP [G19C], -0.918 ± 0.19. For SGWQYDTQCSLAGVGIEMDDWQEVWDENTGCYYYWNTQTNEVTWELPQYLATQVQGLQHYQP [G19D] the value was -0.362 ± 0.12.

Take SGWQYDTQCSLAGVGIEMRDWQEVWDENTGCYYYWNTQTNEVTWELPQYLATQVQGLQHYQP [G19R]: the abundance fitness was -0.722 ± 0.075. For SGWQYDTQCSLAGVGIEMIDWQEVWDENTGCYYYWNTQTNEVTWELPQYLATQVQGLQHYQP [G19I] the value was -0.769 ± 0.19. Turning to SGWQYDTQCSLAGVGIEMFDWQEVWDENTGCYYYWNTQTNEVTWELPQYLATQVQGLQHYQP [G19F], the abundance fitness was -0.794 ± 0.19.

On to SGWQYDTQCSLAGVGIEMSDWQEVWDENTGCYYYWNTQTNEVTWELPQYLATQVQGLQHYQP [G19S], for which the abundance fitness is -0.454 ± 0.094. As for SGWQYDTQCSLAGVGIVMGDWQEVWDENTGCYYYWNTQTNEVTWELPQYLATQVQGLQHYQP [E17V], the figure is -0.237 ± 0.073.

With SGWQYDTQCSLAGVGICMGDWQEVWDENTGCYYYWNTQTNEVTWELPQYLATQVQGLQHYQP [E17C], the abundance fitness is -0.338 ± 0.077.

In the case of SGWQYDTQCSLAGVGIDMGDWQEVWDENTGCYYYWNTQTNEVTWELPQYLATQVQGLQHYQP [E17D], the abundance fitness was 0.138 ± 0.089.

In the case of SGWQYDTQCSLAGVGILMGDWQEVWDENTGCYYYWNTQTNEVTWELPQYLATQVQGLQHYQP [E17L], the abundance fitness is -0.577 ± 0.073. For SGWQYDTQCSLAGVGIMMGDWQEVWDENTGCYYYWNTQTNEVTWELPQYLATQVQGLQHYQP [E17M] the value was -0.414 ± 0.12; for SGWQYDTQCSLAGVGISMGDWQEVWDENTGCYYYWNTQTNEVTWELPQYLATQVQGLQHYQP [E17S], -0.151 ± 0.06. For the variant SGWQYDTQCSLAGVGIHMGDWQEVWDENTGCYYYWNTQTNEVTWELPQYLATQVQGLQHYQP [E17H], the abundance fitness was -0.105 ± 0.11. As for SGWQYDTQCSLAGVGIWMGDWQEVWDENTGCYYYWNTQTNEVTWELPQYLATQVQGLQHYQP [E17W], the figure is -0.403 ± 0.078. As for SGWQYDTQCSLAGVGIQMGDWQEVWDENTGCYYYWNTQTNEVTWELPQYLATQVQGLQHYQP [E17Q], the figure is -0.038 ± 0.096; as for SGWQYDTQCSLAGVGINMGDWQEVWDENTGCYYYWNTQTNEVTWELPQYLATQVQGLQHYQP [E17N], -0.34 ± 0.1. As for SGWQYDTQCSLAGVGIPMGDWQEVWDENTGCYYYWNTQTNEVTWELPQYLATQVQGLQHYQP [E17P], the figure is -0.58 ± 0.1; as for SGWQYDTQCSLAGVGIYMGDWQEVWDENTGCYYYWNTQTNEVTWELPQYLATQVQGLQHYQP [E17Y], -0.838 ± 0.15.

For the variant SGWQYDTQCSLAGVGIRMGDWQEVWDENTGCYYYWNTQTNEVTWELPQYLATQVQGLQHYQP [E17R], the abundance fitness is -0.103 ± 0.051.

For the variant SGWQYDTQCSLAGVGIFMGDWQEVWDENTGCYYYWNTQTNEVTWELPQYLATQVQGLQHYQP [E17F], the abundance fitness was -0.263 ± 0.094. As for SGWQYDTQCSLAGVGIIMGDWQEVWDENTGCYYYWNTQTNEVTWELPQYLATQVQGLQHYQP [E17I], the figure is -0.373 ± 0.12. For SGWQYDTQCSLAGVGIAMGDWQEVWDENTGCYYYWNTQTNEVTWELPQYLATQVQGLQHYQP [E17A], the abundance fitness was -0.183 ± 0.081.

Turning to SGWQYDTQCSLAGVGIGMGDWQEVWDENTGCYYYWNTQTNEVTWELPQYLATQVQGLQHYQP [E17G], the abundance fitness is -0.346 ± 0.061. On to SGWQYDTQCSLAGVGIKMGDWQEVWDENTGCYYYWNTQTNEVTWELPQYLATQVQGLQHYQP [E17K], for which the abundance fitness was determined as 0.063 ± 0.099.

Turning to SGWQYDTQCSLAGVGIEGGDWQEVWDENTGCYYYWNTQTNEVTWELPQYLATQVQGLQHYQP [M18G], the abundance fitness is -0.545 ± 0.079.

As for SGWQYDTQCSLAGVGIEHGDWQEVWDENTGCYYYWNTQTNEVTWELPQYLATQVQGLQHYQP [M18H], the abundance fitness is -0.432 ± 0.16. For SGWQYDTQCSLAGVGIESGDWQEVWDENTGCYYYWNTQTNEVTWELPQYLATQVQGLQHYQP [M18S] the value was -0.586 ± 0.099; for SGWQYDTQCSLAGVGIECGDWQEVWDENTGCYYYWNTQTNEVTWELPQYLATQVQGLQHYQP [M18C], -0.549 ± 0.18.

Regarding SGWQYDTQCSLAGVGIELGDWQEVWDENTGCYYYWNTQTNEVTWELPQYLATQVQGLQHYQP [M18L], the abundance fitness is -0.313 ± 0.065. For SGWQYDTQCSLAGVGIEQGDWQEVWDENTGCYYYWNTQTNEVTWELPQYLATQVQGLQHYQP [M18Q] the value was -0.69 ± 0.13; for SGWQYDTQCSLAGVGIEKGDWQEVWDENTGCYYYWNTQTNEVTWELPQYLATQVQGLQHYQP [M18K], -0.618 ± 0.12; for SGWQYDTQCSLAGVGIEYGDWQEVWDENTGCYYYWNTQTNEVTWELPQYLATQVQGLQHYQP [M18Y], -0.53 ± 0.21. Turning to SGWQYDTQCSLAGVGIETGDWQEVWDENTGCYYYWNTQTNEVTWELPQYLATQVQGLQHYQP [M18T], the abundance fitness is -0.132 ± 0.098.

Turning to SGWQYDTQCSLAGVGIERGDWQEVWDENTGCYYYWNTQTNEVTWELPQYLATQVQGLQHYQP [M18R], the abundance fitness is -0.643 ± 0.092. SGWQYDTQCSLAGVGIEWGDWQEVWDENTGCYYYWNTQTNEVTWELPQYLATQVQGLQHYQP [M18W]: the abundance fitness worked out at 0.025 ± 0.084. As for SGWQYDTQCSLAGVGIEIGDWQEVWDENTGCYYYWNTQTNEVTWELPQYLATQVQGLQHYQP [M18I], the figure is -0.247 ± 0.16.

With SGWQYDTQCSLAGVGIEPGDWQEVWDENTGCYYYWNTQTNEVTWELPQYLATQVQGLQHYQP [M18P], the abundance fitness was -0.264 ± 0.098. As for SGWQYDTQCSLAGVGIENGDWQEVWDENTGCYYYWNTQTNEVTWELPQYLATQVQGLQHYQP [M18N], the figure is -0.869 ± 0.22. As for SGWQYDTQCSLAGVGIEEGDWQEVWDENTGCYYYWNTQTNEVTWELPQYLATQVQGLQHYQP [M18E], the figure is -0.534 ± 0.13; as for SGWQYDTQCSLAGVGIEAGDWQEVWDENTGCYYYWNTQTNEVTWELPQYLATQVQGLQHYQP [M18A], -0.685 ± 0.099; as for SGWQYDTQCSLAGVGIEFGDWQEVWDENTGCYYYWNTQTNEVTWELPQYLATQVQGLQHYQP [M18F], -0.278 ± 0.12.
